Values of other authors as cited in paper PMC8894873.

Biological target: Glu66 (UniProt position 148, FTKKMEENAKK)
Test: stability (inferred; the article mentions only a pH dependence of stability)

## Staphylococcal nuclease V66E variant (Staphylococcus aureus; V66E)
  pKa: 8.8
